Data published in US20250320302A1 (EVOTEC INTERNATIONAL, published 2025).
Where two headings read alike, the source gives them in different places.

T1: human type I IFN receptor on HEK-Blue IFN-α/β cells (human, UniProt P17181 28-557; P48551 27-515)
T1 sequence (looked up) 1: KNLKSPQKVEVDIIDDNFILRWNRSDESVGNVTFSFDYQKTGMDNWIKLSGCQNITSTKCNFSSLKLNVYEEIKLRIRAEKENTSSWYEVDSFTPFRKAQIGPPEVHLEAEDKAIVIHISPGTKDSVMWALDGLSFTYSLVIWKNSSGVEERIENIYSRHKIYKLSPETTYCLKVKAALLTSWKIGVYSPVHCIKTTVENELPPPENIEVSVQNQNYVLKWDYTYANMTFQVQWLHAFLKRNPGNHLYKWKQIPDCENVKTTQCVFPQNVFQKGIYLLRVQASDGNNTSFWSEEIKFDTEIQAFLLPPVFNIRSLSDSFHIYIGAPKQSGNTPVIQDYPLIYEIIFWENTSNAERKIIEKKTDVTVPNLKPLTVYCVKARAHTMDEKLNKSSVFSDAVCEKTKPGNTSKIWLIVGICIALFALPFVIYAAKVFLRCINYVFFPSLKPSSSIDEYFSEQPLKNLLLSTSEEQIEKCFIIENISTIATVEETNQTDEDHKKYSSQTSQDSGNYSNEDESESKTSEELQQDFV
T1 sequence (looked up) 2: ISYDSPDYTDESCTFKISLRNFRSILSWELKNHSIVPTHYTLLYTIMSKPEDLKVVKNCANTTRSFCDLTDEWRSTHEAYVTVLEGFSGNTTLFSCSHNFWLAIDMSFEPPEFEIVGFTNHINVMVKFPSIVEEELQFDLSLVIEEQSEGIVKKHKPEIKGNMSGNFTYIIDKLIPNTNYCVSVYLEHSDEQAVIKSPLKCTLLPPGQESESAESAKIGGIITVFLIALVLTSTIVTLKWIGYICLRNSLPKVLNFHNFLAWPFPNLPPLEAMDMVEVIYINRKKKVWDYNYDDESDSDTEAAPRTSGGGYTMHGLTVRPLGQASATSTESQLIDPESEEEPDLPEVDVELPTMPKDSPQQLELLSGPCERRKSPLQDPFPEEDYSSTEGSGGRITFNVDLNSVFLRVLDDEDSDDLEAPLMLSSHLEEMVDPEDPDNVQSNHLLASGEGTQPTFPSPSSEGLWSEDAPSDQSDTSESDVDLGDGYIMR


Assays:
Assay in all cases: cell-based or functional assay
[1] = target: T2, human CD40 (human, UniProt P25942 21-277)
T2 sequence (P25942 21-277): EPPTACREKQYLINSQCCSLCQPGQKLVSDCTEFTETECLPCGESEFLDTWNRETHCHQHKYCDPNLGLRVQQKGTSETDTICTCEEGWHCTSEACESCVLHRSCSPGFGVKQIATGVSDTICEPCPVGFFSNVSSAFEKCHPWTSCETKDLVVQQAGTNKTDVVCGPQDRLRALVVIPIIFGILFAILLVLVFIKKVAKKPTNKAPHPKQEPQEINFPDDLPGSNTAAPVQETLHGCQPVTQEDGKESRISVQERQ

[2] = target: T1, human type I IFN receptor on HEK-Blue …
[3] = target: T2, human CD40; remark: listed apart in the source
[4] = target: human IFNγ receptor on HEK-Blue IFN-γ cells (human)
[5] = target: T2, human CD40; remark: listed apart in the source
[6] = target: human IFNλ receptor on HEK-Blue IFN-λ cells (human)

CD40 EC50 (HEK-Blue CD40L NFκB-SEAP reporter cells) [1] [ng/mL] | IFNβ EC50 (HEK-Blue IFN-α/β SEAP reporter cells) [2] [ng/mL] | CD40 EC50 (HEK-Blue CD40L NFκB-SEAP reporter cells) [3] [ng/mL] | Binder | also measured
190 | 10.3 | – | IFA106 (antibody, human IgG2, kappa) heavy: QVQLVESGGGVVQPGKSLRLSCAASGFTFSSNGIHWVRQAPGKGLEWVAVIWSDGSNKFYADSVKGRFTISRDNSKNTLYLQMNSLRAEDTAVYYCARASGSGSYYNFFDYWGQGTLVTVSSASTKGPSVFPLAPCSRSTSESTAALGCLVKDYFPEPVTVSWNSGALTSGVHTFPAVLQSSGLYSLSSVVTVPSSNFGTQTYTCNVDHKPSNTKVDKTVERKCCVECPPCPAPPVAGPSVFLFPPKPKDTLMISRTPEVTCVVVDVSHEDPEVQFNWYVDGVEVHNAKTKPREEQFNSTFRVVSVLTVVHQDWLNGKEYKCKVSNKGLPAPIEKTISKTKGQPREPQVYTLPPSREEMTKNQVSLTCLVKGFYPSDIAVEWESNGQPENNYKTTPPMLDSDGSFFLYSKLTVDKSRWQQGNVFSCSVMHEALHNHYTQKSLSLSPGPAPASYNLLGFLQRSSNFQCQKLLWQLNGRLEYCLKDRMNFDIPEEIKQLQQFQKEDAALTIYEMLQNIFAIFRQDSSSTGWNETIVENLLANVYHQINHLKTVLEEKLEKEDFTRGKLMSSLHLKRYYGRILHYLKAKEYSHCAWTIVRVEILRNFYFINRLTGYLRN light: not shown | –
142 | 2.03 | – | IFA107 (antibody, human IgG2, kappa) heavy: QVQLVESGGGVVQPGKSLRLSCAASGFTFSSNGIHWVRQAPGKGLEWVAVIWSDGSNKFYADSVKGRFTISRDNSKNTLYLQMNSLRAEDTAVYYCARASGSGSYYNFFDYWGQGTLVTVSSASTKGPSVFPLAPCSRSTSESTAALGCLVKDYFPEPVTVSWNSGALTSGVHTFPAVLQSSGLYSLSSVVTVPSSNFGTQTYTCNVDHKPSNTKVDKTVERKCCVECPPCPAPPVAGPSVFLFPPKPKDTLMISRTPEVTCVVVDVSHEDPEVQFNWYVDGVEVHNAKTKPREEQFNSTFRVVSVLTVVHQDWLNGKEYKCKVSNKGLPAPIEKTISKTKGQPREPQVYTLPPSREEMTKNQVSLTCLVKGFYPSDIAVEWESNGQPENNYKTTPPMLDSDGSFFLYSKLTVDKSRWQQGNVFSCSVMHEALHNHYTQKSLSLSPGPAPASYNLLGFLQRSSNFQSQKLLWQLNGRLEYCLKDRMNFDIPEEIKQLQQFQKEDAALTIYEMLQNIFAIFRQDSSSTGWNETIVENLLANVYHQINHLKTVLEEKLEKEDFTRGKLMSSLHLKRYYGRILHYLKAKEYSHCAWTIVRVEILRNFYFINRLTGYLRN light: not shown | –
– | – | 65.6 | IFA42 (antibody, human IgG2, kappa) light: DIQMTQSPSSVSASVGDRVTITCRASQGIYSWLAWYQQKPGKAPNLLIYTASTLQSGVPSRFSGSGSGTDFTLTISSLQPEDFATYYCQQANIFPLTFGGGTKVEIKRTVAAPSVFIFPPSDEQLKSGTASVVCLLNNFYPREAKVQWKVDNALQSGNSQESVTEQDSKDSTYSLSSTLTLSKADYEKHKVYACEVTHQGLSSPVTKSFNRGECGGGGSGGGGSGGGGSGGGGSQDPYVKEAENLKKYFNAGHSDVADNGTLFLGILKNWKEESDRKIMQSQIVSFYFKLFKNFKDDQSIQKSVETIKEDMNVKFFNSNKKKRDDFEKLTNYSVTDLNVQRKAIHELIQVMAELSPAAKTGKRKRSQMLFRGRRASQ heavy: not shown | IFNγ EC50 (HEK-Blue IFNγ reporter cells) [4]: 15.4 ng/mL
– | – | – | 3G5 (antibody, human IgG2, kappa) heavy: QVQLVESGGGVVQPGKSLRLSCAASGFTFSSNGIHWVRQAPGKGLEWVAVIWSDGSNKFYADSVKGRFTISRDNSKNTLYLQMNSLRAEDTAVYYCARASGSGSYYNFFDYWGQGTLVTVSSASTKGPSVFPLAPCSRSTSESTAALGCLVKDYFPEPVTVSWNSGALTSGVHTFPAVLQSSGLYSLSSVVTVPSSNFGTQTYTCNVDHKPSNTKVDKTVERKCCVECPPCPAPPVAGPSVFLFPPKPKDTLMISRTPEVTCVVVDVSHEDPEVQFNWYVDGVEVHNAKTKPREEQFNSTFRVVSVLTVVHQDWLNGKEYKCKVSNKGLPAPIEKTISKTKGQPREPQVYTLPPSREEMTKNQVSLTCLVKGFYPSDIAVEWESNGQPENNYKTTPPMLDSDGSFFLYSKLTVDKSRWQQGNVFSCSVMHEALHNHYTQKSLSLSPG light: not shown | CD40 EC50, mean (HEK-Blue CD40L NFκB-SEAP reporter cells) [5]: 9.3 ng/mL
– | – | 25.8 | IFA45 (antibody, human IgG2, kappa) heavy: not shown light: DIQMTQSPSSVSASVGDRVTITCRASQGIYSWLAWYQQKPGKAPNLLIYTASTLQSGVPSRFSGSGSGTDFTLTISSLQPEDFATYYCQQANIFPLTFGGGTKVEIKRTVAAPSVFIFPPSDEQLKSGTASVVCLLNNFYPREAKVQWKVDNALQSGNSQESVTEQDSKDSTYSLSSTLTLSKADYEKHKVYACEVTHQGLSSPVTKSFNRGEC | IFNλ EC50 (HEK-Blue IFNλ reporter cells) [6]: < 0.001 ng/mL
– | – | – | CP870,893 (antibody, human IgG2, kappa) heavy: not shown light: DIQMTQSPSSVSASVGDRVTITCRASQGIYSWLAWYQQKPGKAPNLLIYTASTLQSGVPSRFSGSGSGTDFTLTISSLQPEDFATYYCQQANIFPLTFGGGTKVEIKRTVAAPSVFIFPPSDEQLKSGTASVVCLLNNFYPREAKVQWKVDNALQSGNSQESVTEQDSKDSTYSLSSTLTLSKADYEKHKVYACEVTHQGLSSPVTKSFNRGEC | CD40 EC50 (HEK-Blue CD40L NFκB-SEAP reporter cells) [5]: 30 to 80 ng/mL; CD40 EC50, mean (HEK-Blue CD40L NFκB-SEAP reporter cells) [5]: 48 ng/mL; CD40 EC50 in the experiment of FIG. 3 (HEK-Blue CD40L NFκB-SEAP reporter cells) [5]: 57 ng/mL
– | – | 41.4 | IFA44 (antibody, human IgG2, kappa) light: DIQMTQSPSSVSASVGDRVTITCRASQGIYSWLAWYQQKPGKAPNLLIYTASTLQSGVPSRFSGSGSGTDFTLTISSLQPEDFATYYCQQANIFPLTFGGGTKVEIKRTVAAPSVFIFPPSDEQLKSGTASVVCLLNNFYPREAKVQWKVDNALQSGNSQESVTEQDSKDSTYSLSSTLTLSKADYEKHKVYACEVTHQGLSSPVTKSFNRGECGGGGSGGGGSGGGGSGGGGSVPVARLHGALPDARGCHIAQFKSLSPQELQAFKRAKDALEESLLLKDCRCHSRLFPRTWDLRQLQVRERPMALEAELALTLKVLEATADTDPALVDVLDQPLHTLHHILSQFRACIQPQPTAGPRTRGRLHHWLYRLQEAPKKESPGCLEASVTFNLFRLLTRDLNCVASGDLCV heavy: not shown | IFNλ EC50 (HEK-Blue IFNλ reporter cells) [6]: 0.153 ng/mL
37.3 | 1.27 | – | IFA108 (antibody, human IgG2, kappa) heavy: QVQLVESGGGVVQPGKSLRLSCAASGFTFSSNGIHWVRQAPGKGLEWVAVIWSDGSNKFYADSVKGRFTISRDNSKNTLYLQMNSLRAEDTAVYYCARASGSGSYYNFFDYWGQGTLVTVSSASTKGPSVFPLAPCSRSTSESTAALGCLVKDYFPEPVTVSWNSGALTSGVHTFPAVLQSSGLYSLSSVVTVPSSNFGTQTYTCNVDHKPSNTKVDKTVERKCCVECPPCPAPPVAGPSVFLFPPKPKDTLMISRTPEVTCVVVDVSHEDPEVQFNWYVDGVEVHNAKTKPREEQFNSTFRVVSVLTVVHQDWLNGKEYKCKVSNKGLPAPIEKTISKTKGQPREPQVYTLPPSREEMTKNQVSLTCLVKGFYPSDIAVEWESNGQPENNYKTTPPMLDSDGSFFLYSKLTVDKSRWQQGNVFSCSVMHEALHNHYTQKSLSLSPGAEAAAKEAAAKASYNLLGFLQRSSNFQCQKLLWQLNGRLEYCLKDRMNFDIPEEIKQLQQFQKEDAALTIYEMLQNIFAIFRQDSSSTGWNETIVENLLANVYHQINHLKTVLEEKLEKEDFTRGKLMSSLHLKRYYGRILHYLKAKEYSHCAWTIVRVEILRNFYFINRLTGYLRN light: not shown | –
30 | 0.45 | – | IFA109 (antibody, human IgG2, kappa) heavy: QVQLVESGGGVVQPGKSLRLSCAASGFTFSSNGIHWVRQAPGKGLEWVAVIWSDGSNKFYADSVKGRFTISRDNSKNTLYLQMNSLRAEDTAVYYCARASGSGSYYNFFDYWGQGTLVTVSSASTKGPSVFPLAPCSRSTSESTAALGCLVKDYFPEPVTVSWNSGALTSGVHTFPAVLQSSGLYSLSSVVTVPSSNFGTQTYTCNVDHKPSNTKVDKTVERKCCVECPPCPAPPVAGPSVFLFPPKPKDTLMISRTPEVTCVVVDVSHEDPEVQFNWYVDGVEVHNAKTKPREEQFNSTFRVVSVLTVVHQDWLNGKEYKCKVSNKGLPAPIEKTISKTKGQPREPQVYTLPPSREEMTKNQVSLTCLVKGFYPSDIAVEWESNGQPENNYKTTPPMLDSDGSFFLYSKLTVDKSRWQQGNVFSCSVMHEALHNHYTQKSLSLSPGAEAAAKEAAAKASYNLLGFLQRSSNFQSQKLLWQLNGRLEYCLKDRMNFDIPEEIKQLQQFQKEDAALTIYEMLQNIFAIFRQDSSSTGWNETIVENLLANVYHQINHLKTVLEEKLEKEDFTRGKLMSSLHLKRYYGRILHYLKAKEYSHCAWTIVRVEILRNFYFINRLTGYLRN light: not shown | –
